Assays:
[1] = biological target: factor Xa (UniProt P00742); test: cell-based or functional assay
[2] = biological target: factor Xa (UniProt P00742); test: cell-based or functional assay; remark: listed apart in the source

For “antithrombin III (from UniProt P01008 33-464)”, the t1/2 of inhibition of factor Xa by antithrombin III with PZ, cephalin and Ca++ ions (bioassay) [1] was 35 min.

In the case of “human protein Z (PZ), isolated from citrated fresh frozen plasma (from UniProt P22891 41-400)”, the Apparent Inhibition (%) of factor Xa, one-stage coagulation assay; incubation factor Xa 15 sec, PZ 120 sec [1] is reported as 70%, the Apparent Inhibition (%) of factor Xa, one-stage coagulation assay; incubation factor Xa 30 sec, PZ 120 sec [1] is reported as 71% and the Apparent Inhibition (%) of factor Xa, one-stage coagulation assay; incubation factor Xa 60 sec, PZ 120 sec [1] is reported as 73%. The Apparent Inhibition (%) of factor Xa, one-stage coagulation assay; incubation factor Xa 90 sec, PZ 120 sec [1] was 76%, the Apparent Inhibition (%) of factor Xa, one-stage coagulation assay; incubation factor Xa 120 sec, PZ 0 sec [1] was 0% and the Apparent Inhibition (%) of factor Xa, one-stage coagulation assay; incubation factor Xa 120 sec, PZ 15 sec [1] was 50%. It also gave an Apparent Inhibition (%) of factor Xa, one-stage coagulation assay; incubation factor Xa 120 sec, PZ 30 sec [1] of 61%, an Apparent Inhibition (%) of factor Xa, one-stage coagulation assay; incubation factor Xa 120 sec, PZ 60 sec [1] of 72% and an Apparent Inhibition (%) of factor Xa, one-stage coagulation assay; incubation factor Xa 120 sec, PZ 90 sec [1] of 76%. The Apparent Inhibition (%) of factor Xa, one-stage coagulation assay; incubation factor Xa 120 sec, PZ 120 sec [1] was 78%, the Apparent Inhibition (%) of factor Xa, one-stage coagulation assay; incubation factor Xa 120 sec, PZ 120 sec w/o Ca++ [1] was 0% and the Apparent Inhibition (%) of factor Xa, one-stage coagulation assay; incubation factor Xa 120 sec, PZ 120 sec w/o cephalin [1] was 0%. The Apparent factor Xa inhibition by inclusion of PZ during preincubation, plasma treated with preimmune IgG (clotting time) [1] was 76% and the molar ratio (PZ:factor Xa) from PZ dose/response of ZPI-mediated factor Xa inhibition, amidolytic assay (mol PZ per mol factor Xa) [1] was 1.4.

For “thrombin-cleaved PZ (PZT) (from UniProt P22891 84-400)”, the Apparent Inhibition (%) of factor Xa, one-stage coagulation assay; incubation factor Xa 120 sec, PZT 120 sec [1] was 0%.

With “tissue factor pathway inhibitor (TFPI) (from UniProt P10646 29-304)” the inhibition of the chromogenic activity of the factor Xa preparations [1] was > 99%.

B1: human protein Z-dependent protease inhibitor (ZPI), purified from human plasma (protein)
chain: LAPSPQSPETPAPQNQTSRVVQAPKEEEEDEQEASEEKASEEEKAWLMASRQQLAKETSNFGFSLLRKISMRHDGNMVFSPFGMSLAMTGLMLGATGPTETQIKRGLHLQALKPTKPGLLPSLFKGLRETLSRNLELGLTQGSFAFIHKDFDVKETFFNLSKRYFDTECVPMNFRNASQAKRLMNHYINKETRGKIPKLFDEINPETKLILVDYILFKGKWLTPFDPVFTEVDTFHLDKYKTIKVPMMYGAGKFASTFDKNFRCHVLKLPYQGNATMLVVLMEKMGDHLALEDYLTTDLVETWLRNMKTRNMEVFFPKFKLDQKYEMHELLRQMGIRRIFSPFADLSELSATGRNLQVSRVLQRTVIEVDERGTEAVAGILSEITAYSMPPVIKVDRPFHFMIYEETSGMLLFLGRVVNPTLL
modifications: Plasma glycoprotein with five potential N-linked glycosylation sites; the glycans are not carried by the letters.
With B1 the Maximal factor Xa inhibition, amidolytic assay, reached within <1 minute (with PZ, Ca++ ions, cephalin) [2] was 70%, the Maximal factor Xa inhibition, bioassay, reached within <1 minute (with PZ, Ca++ ions, cephalin) [2] was 97% and the factor Xa amidolytic activity that persists at relatively high concentrations of ZPI [2] was 20%. For the same molecule, the stoichiometry (ZPI:factor Xa) from ZPI dose/response, factor Xa amidolytic assay with PZ, CaCl2 and cephalin (mol ZPI per mol factor Xa) [2] was 1.2.

B2: rZPI(WT), recombinant wild-type ZPI expressed in CHO cells (protein, UniProt Q9UK55 22-444, looked up)
Protein Z-dependent protease inhibitor: LAPSPQSPETPAPQNQTSRVVQAPKEEEEDEQEASEEKASEEEKAWLMASRQQLAKETSNFGFSLLRKISMRHDGNMVFSPFGMSLAMTGLMLGATGPTETQIKRGLHLQALKPTKPGLLPSLFKGLRETLSRNLELGLTQGSFAFIHKDFDVKETFFNLSKRYFDTECVPMNFRNASQAKRLMNHYINKETRGKIPKLFDEINPETKLILVDYILFKGKWLTPFDPVFTEVDTFHLDKYKTIKVPMMYGAGKFASTFDKNFRCHVLKLPYQGNATMLVVLMEKMGDHLALEDYLTTDLVETWLRNMKTRNMEVFFPKFKLDQKYEMHELLRQMGIRRIFSPFADLSELSATGRNLQVSRVLQRTVIEVDERGTEAVAGILSEITAYSMPPVIKVDRPFHFMIYEETSGMLLFLGRVVNPTLL
B2 gave a ZPI activity of conditioned media, two-stage assay of PZ-dependent factor Xa inhibition [2] of 375 mU/mL.

B3: rZPI(Y387A), recombinant ZPI with tyrosine 387 changed to alanine (protein, UniProt Q9UK55 22-444 with Y387A, looked up)
Protein Z-dependent protease inhibitor: LAPSPQSPETPAPQNQTSRVVQAPKEEEEDEQEASEEKASEEEKAWLMASRQQLAKETSNFGFSLLRKISMRHDGNMVFSPFGMSLAMTGLMLGATGPTETQIKRGLHLQALKPTKPGLLPSLFKGLRETLSRNLELGLTQGSFAFIHKDFDVKETFFNLSKRYFDTECVPMNFRNASQAKRLMNHYINKETRGKIPKLFDEINPETKLILVDYILFKGKWLTPFDPVFTEVDTFHLDKYKTIKVPMMYGAGKFASTFDKNFRCHVLKLPYQGNATMLVVLMEKMGDHLALEDYLTTDLVETWLRNMKTRNMEVFFPKFKLDQKYEMHELLRQMGIRRIFSPFADLSELSATGRNLQVSRVLQRTVIEVDERGTEAVAGILSEITAASMPPVIKVDRPFHFMIYEETSGMLLFLGRVVNPTLL
In the case of B3, the ZPI activity of conditioned media, two-stage assay of PZ-dependent factor Xa inhibition [2] is reported as < 10 mU/mL.

B4: rZPI(Y387R), recombinant ZPI with tyrosine 387 changed to arginine (protein, UniProt Q9UK55 22-444 with Y387R, looked up)
Protein Z-dependent protease inhibitor: LAPSPQSPETPAPQNQTSRVVQAPKEEEEDEQEASEEKASEEEKAWLMASRQQLAKETSNFGFSLLRKISMRHDGNMVFSPFGMSLAMTGLMLGATGPTETQIKRGLHLQALKPTKPGLLPSLFKGLRETLSRNLELGLTQGSFAFIHKDFDVKETFFNLSKRYFDTECVPMNFRNASQAKRLMNHYINKETRGKIPKLFDEINPETKLILVDYILFKGKWLTPFDPVFTEVDTFHLDKYKTIKVPMMYGAGKFASTFDKNFRCHVLKLPYQGNATMLVVLMEKMGDHLALEDYLTTDLVETWLRNMKTRNMEVFFPKFKLDQKYEMHELLRQMGIRRIFSPFADLSELSATGRNLQVSRVLQRTVIEVDERGTEAVAGILSEITARSMPPVIKVDRPFHFMIYEETSGMLLFLGRVVNPTLL
B4 showed a ZPI activity of conditioned media, two-stage assay of PZ-dependent factor Xa inhibition [2] of 21 mU/mL.
